Target: Myeloperoxidase (MPO), native, dimeric (human) (UniProt P05164)
Assay: SPR

B1: Ceruloplasmin (CP), intact (non-proteolyzed) (natural protein)
chain: KEKHYYIGIIETTWDYASDHGEKKLISVDTEHSNIYLQNGPDRIGRLYKKALYLQYTDETFRTTIEKPVWLGFLGPIIKAETGDKVYVHLKNLASRPYTFHSHGITYYKEHEGAIYPDNTTDFQRADDKVYPGEQYTYMLLATEEQSPGEGDGNCVTRIYHSHIDAPKDIASGLIGPLIICKKDSLDKEKEKHIDREFVVMFSVVDENFSWYLEDNIKTYCSEPEKVDKDNEDFQESNRMYSVNGYTFGSLPGLSMCAEDRVKWYLFGMGNEVDVHAAFFHGQALTNKNYRIDTINLFPATLFDAYMVAQNPGEWMLSCQNLNHLKAGLQAFFQVQECNKSSSKDNIRGKHVRHYYIAAEEIIWNYAPSGIDIFTKENLTAPGSDSAVFFEQGTTRIGGSYKKLVYREYTDASFTNRKERGPEEEHLGILGPVIWAEVGDTIRVTFHNKGAYPLSIEPIGVRFNKNNEGTYYSPNYNPQSRSVPPSASHVAPTETFTYEWTVPKEVGPTNADPVCLAKMYYSAVEPTKDIFTGLIGPMKICKKGSLHANGRQKDVDKEFYLFPTVFDENESLLLEDNIRMFTTAPDQVDKEDEDFQESNKMHSMNGFMYGNQPGLTMCKGDSVVWYLFSAGNEADVHGIYFSGNTYLWRGERRDTANLFPQTSLTLHMWPDTEGTFNVECLTTDHYTGGMKQKYTVNQCRRQSEDSTFYLGERTYYIAAVEVEWDYSPQREWEKELHHLQEQNVSNAFLDKGEFYIGSKYKKVVYRQYTDSTFRVPVERKAEEEHLGILGPQLHADVGDKVKIIFKNMATRPYSIHAHGVQTESSTVTPTLPGETLTYVWKIPERSGAGTEDSACIPWAYYSTVDQVKDLYSGLIGPLIVCRRPYLKVFNPRRKLEFALLFLVFDENESWYLDDNIKTYSDHPEKVNKDDEEFIESNKMHAINGRMFGNLQGLTMHVGDEVNWYLMGMGNEIDLHTVHFHGHSFQYKHRGVYSSDVFDIFPGTYQTLEMFPRTPGIWLLHCHVTDHIHAGMETTYTVLQNEDTKSG
Question: With B1 as the binder, how does the Kd read?
Answer: 436 nM

Question: What about the koff of the same binder?
Answer: 0.503 s⁻¹

Question: What about the kon of the same binder?
Answer: 11500 M⁻¹ s⁻¹
